Results on seven molecules are retold here after patent US20180071366A1.

Numbered stars: 1 amine (or outer) side, 2 acyl side, 3 side chain; on linkers, the order of the positions; unused ones are H or OH. Bridge positions count the residues as written; N and C are the ends. Square brackets hold non-standard residues; d marks the D form. * marks the point of attachment. C20 diacid = O=C(O)CCCCCCCCCCCCCCCCCCC(=O)*; γGlu = O=C(O)[C@H](CCC(=O)[*:2])N[*:1]; Hyp = O=C(O)[C@@H]1C[C@@H](O)CN1; NMeI = CC[C@H](C)[C@H](NC)C(=O)O; Aad = N[C@@H](CCCC(=O)O)C(=O)O; Orn = NCCC[C@H](N)C(=O)O; Sar = CNCC(=O)O

In assay [1] the target is recombinant human calcitonin receptor (hCT-R) (human), P30988. The experiment in a line: cell-based or functional assay.
Sequence of recombinant human calcitonin receptor (hCT-R) (human), P30988 (P30988 25-474): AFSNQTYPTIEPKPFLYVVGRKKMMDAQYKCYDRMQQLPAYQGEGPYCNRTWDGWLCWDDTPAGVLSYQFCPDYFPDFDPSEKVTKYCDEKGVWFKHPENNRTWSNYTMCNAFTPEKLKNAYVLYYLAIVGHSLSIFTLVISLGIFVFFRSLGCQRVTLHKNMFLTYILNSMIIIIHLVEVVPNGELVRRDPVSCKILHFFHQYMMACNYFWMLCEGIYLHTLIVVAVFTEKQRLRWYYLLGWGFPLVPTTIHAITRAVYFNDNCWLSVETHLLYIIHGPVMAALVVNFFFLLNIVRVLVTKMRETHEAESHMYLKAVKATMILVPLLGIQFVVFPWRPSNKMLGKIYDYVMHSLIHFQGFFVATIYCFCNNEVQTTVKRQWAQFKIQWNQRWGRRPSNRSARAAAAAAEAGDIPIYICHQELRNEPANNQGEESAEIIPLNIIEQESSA
Assay [2] addresses recombinant human amylin 3 receptor (hAMYR3) (human), P30988. Kind of assay: cell-based or functional assay.

Sequence of recombinant human amylin 3 receptor (hAMYR3) (human), P30988 (P30988 25-474, chain 1 of 2): as the sequence (P30988 25-474) above
Sequence of recombinant human amylin 3 receptor (hAMYR3) (human), P30988 (O60896 24-148, chain 2 of 2, further chain): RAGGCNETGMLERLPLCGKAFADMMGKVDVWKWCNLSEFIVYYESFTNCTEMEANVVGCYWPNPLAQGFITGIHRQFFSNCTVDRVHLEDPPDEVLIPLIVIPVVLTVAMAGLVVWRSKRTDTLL

B1: Compound 25 (peptide)
peptide: {C20 diacid-γGlu}-RDGTAT[Orn]ATERLA[Aad]FLQRATF[Sar]A[NMeI]LSSTEVGSNT[Hyp]-NH2
modifications: lactam 2-7
SMILES: CC[C@H](C)[C@@H](C(=O)N[C@@H](CC(C)C)C(=O)N[C@@H](CO)C(=O)N[C@@H](CO)C(=O)N[C@H](C(=O)N[C@@H](CCC(=O)O)C(=O)N[C@H](C(=O)NCC(=O)N[C@@H](CO)C(=O)N[C@@H](CC(N)=O)C(=O)N[C@H](C(=O)N1C[C@H](O)C[C@H]1C(N)=O)[C@@H](C)O)C(C)C)[C@@H](C)O)N(C)C(=O)[C@H](C)NC(=O)CN(C)C(=O)[C@H](Cc1ccccc1)NC(=O)[C@@H](NC(=O)[C@H](C)NC(=O)[C@H](CCCNC(=N)N)NC(=O)[C@H](CCC(N)=O)NC(=O)[C@H](CC(C)C)NC(=O)[C@H](Cc1ccccc1)NC(=O)[C@H](CCCC(=O)O)NC(=O)[C@H](C)NC(=O)[C@H](CC(C)C)NC(=O)[C@H](CCCNC(=N)N)NC(=O)[C@H](CCC(=O)O)NC(=O)[C@@H](NC(=O)[C@H](C)NC(=O)[C@@H]1CCCNC(=O)C[C@H](NC(=O)[C@H](CCCNC(=N)N)NC(=O)CC[C@H](NC(=O)CCCCCCCCCCCCCCCCCCC(=O)O)C(=O)O)C(=O)NCC(=O)N[C@@H]([C@@H](C)O)C(=O)N[C@@H](C)C(=O)N[C@@H]([C@@H](C)O)C(=O)N1)[C@@H](C)O)[C@@H](C)O
With B1, the hCT-R EC50 [nM] (cAMP formation, 1321N1 cells expressing hCT-R) in assay [1] came to 0.844 nM. The hAMYR3 EC50 [nM] (cAMP formation, 1321N1 cells expressing hAMYR3) in assay [2] is 0.336 nM.

B2: Compound 28 (peptide)
peptide: {C20 diacid-γGlu}-RDQTAT[Orn]ATERLA[Aad]FLQRGTF[Sar]A[NMeI]LSSTEVGSNT[Hyp]-NH2
modifications: lactam 2-7
SMILES: CC[C@H](C)[C@@H](C(=O)N[C@@H](CC(C)C)C(=O)N[C@@H](CO)C(=O)N[C@@H](CO)C(=O)N[C@H](C(=O)N[C@@H](CCC(=O)O)C(=O)N[C@H](C(=O)NCC(=O)N[C@@H](CO)C(=O)N[C@@H](CC(N)=O)C(=O)N[C@H](C(=O)N1C[C@H](O)C[C@H]1C(N)=O)[C@@H](C)O)C(C)C)[C@@H](C)O)N(C)C(=O)[C@H](C)NC(=O)CN(C)C(=O)[C@H](Cc1ccccc1)NC(=O)[C@@H](NC(=O)CNC(=O)[C@H](CCCNC(=N)N)NC(=O)[C@H](CCC(N)=O)NC(=O)[C@H](CC(C)C)NC(=O)[C@H](Cc1ccccc1)NC(=O)[C@H](CCCC(=O)O)NC(=O)[C@H](C)NC(=O)[C@H](CC(C)C)NC(=O)[C@H](CCCNC(=N)N)NC(=O)[C@H](CCC(=O)O)NC(=O)[C@@H](NC(=O)[C@H](C)NC(=O)[C@@H]1CCCNC(=O)C[C@H](NC(=O)[C@H](CCCNC(=N)N)NC(=O)CC[C@H](NC(=O)CCCCCCCCCCCCCCCCCCC(=O)O)C(=O)O)C(=O)N[C@@H](CCC(N)=O)C(=O)N[C@@H]([C@@H](C)O)C(=O)N[C@@H](C)C(=O)N[C@@H]([C@@H](C)O)C(=O)N1)[C@@H](C)O)[C@@H](C)O
Take B2: the hCT-R EC50 [nM] (cAMP formation, 1321N1 cells expressing hCT-R) in assay [1] is 1.23 nM. In assay [2], the hAMYR3 EC50 [nM] (cAMP formation, 1321N1 cells expressing hAMYR3) is 0.268 nM.

B3: Compound 30 (peptide)
peptide: {C20 diacid-γGlu}-EDGTATKATERLA[Aad]FLQRSSF[Sar]A[NMeI]PSSTEVGSNT[Hyp]-NH2
modifications: lactam 2-7
SMILES: CC[C@H](C)[C@@H](C(=O)N1CCC[C@H]1C(=O)N[C@@H](CO)C(=O)N[C@@H](CO)C(=O)N[C@H](C(=O)N[C@@H](CCC(=O)O)C(=O)N[C@H](C(=O)NCC(=O)N[C@@H](CO)C(=O)N[C@@H](CC(N)=O)C(=O)N[C@H](C(=O)N1C[C@H](O)C[C@H]1C(N)=O)[C@@H](C)O)C(C)C)[C@@H](C)O)N(C)C(=O)[C@H](C)NC(=O)CN(C)C(=O)[C@H](Cc1ccccc1)NC(=O)[C@H](CO)NC(=O)[C@H](CO)NC(=O)[C@H](CCCNC(=N)N)NC(=O)[C@H](CCC(N)=O)NC(=O)[C@H](CC(C)C)NC(=O)[C@H](Cc1ccccc1)NC(=O)[C@H](CCCC(=O)O)NC(=O)[C@H](C)NC(=O)[C@H](CC(C)C)NC(=O)[C@H](CCCNC(=N)N)NC(=O)[C@H](CCC(=O)O)NC(=O)[C@@H](NC(=O)[C@H](C)NC(=O)[C@@H]1CCCCNC(=O)C[C@H](NC(=O)[C@H](CCC(=O)O)NC(=O)CC[C@H](NC(=O)CCCCCCCCCCCCCCCCCCC(=O)O)C(=O)O)C(=O)NCC(=O)N[C@@H]([C@@H](C)O)C(=O)N[C@@H](C)C(=O)N[C@@H]([C@@H](C)O)C(=O)N1)[C@@H](C)O
With B3, the hCT-R EC50 [nM] (cAMP formation, 1321N1 cells expressing hCT-R) in assay [1] is 0.232 nM. Further, the hAMYR3 EC50 [nM] (cAMP formation, 1321N1 cells expressing hAMYR3) in assay [2] was found to be 0.122 nM.

B4: Compound 3 (peptide)
peptide: {C20 diacid-γGlu}-RDGTAT[Orn]ATERLAHFLQRSSF[Sar]A[NMeI]LSSTEVGSNT[Hyp]-NH2
modifications: lactam 2-7
SMILES: CC[C@H](C)[C@@H](C(=O)N[C@@H](CC(C)C)C(=O)N[C@@H](CO)C(=O)N[C@@H](CO)C(=O)N[C@H](C(=O)N[C@@H](CCC(=O)O)C(=O)N[C@H](C(=O)NCC(=O)N[C@@H](CO)C(=O)N[C@@H](CC(N)=O)C(=O)N[C@H](C(=O)N1C[C@H](O)C[C@H]1C(N)=O)[C@@H](C)O)C(C)C)[C@@H](C)O)N(C)C(=O)[C@H](C)NC(=O)CN(C)C(=O)[C@H](Cc1ccccc1)NC(=O)[C@H](CO)NC(=O)[C@H](CO)NC(=O)[C@H](CCCNC(=N)N)NC(=O)[C@H](CCC(N)=O)NC(=O)[C@H](CC(C)C)NC(=O)[C@H](Cc1ccccc1)NC(=O)[C@H](Cc1c[nH]cn1)NC(=O)[C@H](C)NC(=O)[C@H](CC(C)C)NC(=O)[C@H](CCCNC(=N)N)NC(=O)[C@H](CCC(=O)O)NC(=O)[C@@H](NC(=O)[C@H](C)NC(=O)[C@@H]1CCCNC(=O)C[C@H](NC(=O)[C@H](CCCNC(=N)N)NC(=O)CC[C@H](NC(=O)CCCCCCCCCCCCCCCCCCC(=O)O)C(=O)O)C(=O)NCC(=O)N[C@@H]([C@@H](C)O)C(=O)N[C@@H](C)C(=O)N[C@@H]([C@@H](C)O)C(=O)N1)[C@@H](C)O
Take B4: the hCT-R EC50 [nM] (cAMP formation, 1321N1 cells expressing hCT-R) in assay [1] was found to be 0.081 nM. In assay [2], the hAMYR3 EC50 [nM] (cAMP formation, 1321N1 cells expressing hAMYR3) was 0.035 nM.

B5: Compound 26 (peptide)
peptide: {C20 diacid-γGlu}-RDGTAT[Orn]ATERLA[Aad]FLQRAAF[Sar]A[NMeI]LSSTEVGSNT[Hyp]-NH2
modifications: lactam 2-7
SMILES: CC[C@H](C)[C@@H](C(=O)N[C@@H](CC(C)C)C(=O)N[C@@H](CO)C(=O)N[C@@H](CO)C(=O)N[C@H](C(=O)N[C@@H](CCC(=O)O)C(=O)N[C@H](C(=O)NCC(=O)N[C@@H](CO)C(=O)N[C@@H](CC(N)=O)C(=O)N[C@H](C(=O)N1C[C@H](O)C[C@H]1C(N)=O)[C@@H](C)O)C(C)C)[C@@H](C)O)N(C)C(=O)[C@H](C)NC(=O)CN(C)C(=O)[C@H](Cc1ccccc1)NC(=O)[C@H](C)NC(=O)[C@H](C)NC(=O)[C@H](CCCNC(=N)N)NC(=O)[C@H](CCC(N)=O)NC(=O)[C@H](CC(C)C)NC(=O)[C@H](Cc1ccccc1)NC(=O)[C@H](CCCC(=O)O)NC(=O)[C@H](C)NC(=O)[C@H](CC(C)C)NC(=O)[C@H](CCCNC(=N)N)NC(=O)[C@H](CCC(=O)O)NC(=O)[C@@H](NC(=O)[C@H](C)NC(=O)[C@@H]1CCCNC(=O)C[C@H](NC(=O)[C@H](CCCNC(=N)N)NC(=O)CC[C@H](NC(=O)CCCCCCCCCCCCCCCCCCC(=O)O)C(=O)O)C(=O)NCC(=O)N[C@@H]([C@@H](C)O)C(=O)N[C@@H](C)C(=O)N[C@@H]([C@@H](C)O)C(=O)N1)[C@@H](C)O
With B5, the hCT-R EC50 [nM] (cAMP formation, 1321N1 cells expressing hCT-R) in assay [1] was 0.769 nM. For the same molecule, the hAMYR3 EC50 [nM] (cAMP formation, 1321N1 cells expressing hAMYR3) in assay [2] stood at 0.12 nM.

B6: Compound 27 (peptide)
peptide: {C20 diacid-γGlu}-RDGTAT[Orn]ATERLA[Aad]FLQRGTF[Sar]A[NMeI]LSSTEVGSNT[Hyp]-NH2
modifications: lactam 2-7
SMILES: CC[C@H](C)[C@@H](C(=O)N[C@@H](CC(C)C)C(=O)N[C@@H](CO)C(=O)N[C@@H](CO)C(=O)N[C@H](C(=O)N[C@@H](CCC(=O)O)C(=O)N[C@H](C(=O)NCC(=O)N[C@@H](CO)C(=O)N[C@@H](CC(N)=O)C(=O)N[C@H](C(=O)N1C[C@H](O)C[C@H]1C(N)=O)[C@@H](C)O)C(C)C)[C@@H](C)O)N(C)C(=O)[C@H](C)NC(=O)CN(C)C(=O)[C@H](Cc1ccccc1)NC(=O)[C@@H](NC(=O)CNC(=O)[C@H](CCCNC(=N)N)NC(=O)[C@H](CCC(N)=O)NC(=O)[C@H](CC(C)C)NC(=O)[C@H](Cc1ccccc1)NC(=O)[C@H](CCCC(=O)O)NC(=O)[C@H](C)NC(=O)[C@H](CC(C)C)NC(=O)[C@H](CCCNC(=N)N)NC(=O)[C@H](CCC(=O)O)NC(=O)[C@@H](NC(=O)[C@H](C)NC(=O)[C@@H]1CCCNC(=O)C[C@H](NC(=O)[C@H](CCCNC(=N)N)NC(=O)CC[C@H](NC(=O)CCCCCCCCCCCCCCCCCCC(=O)O)C(=O)O)C(=O)NCC(=O)N[C@@H]([C@@H](C)O)C(=O)N[C@@H](C)C(=O)N[C@@H]([C@@H](C)O)C(=O)N1)[C@@H](C)O)[C@@H](C)O
B6: the hCT-R EC50 [nM] (cAMP formation, 1321N1 cells expressing hCT-R) in assay [1] amounted to 0.521 nM. Besides, in assay [2], the hAMYR3 EC50 [nM] (cAMP formation, 1321N1 cells expressing hAMYR3) was 0.325 nM.

B7: Compound 29 (peptide)
peptide: {C20 diacid-γGlu}-RDPTATKATERLA[Aad]FLQRSSF[Sar]A[NMeI]LSSTEVGSNT[Hyp]-NH2
modifications: lactam 2-7
SMILES: CC[C@H](C)[C@@H](C(=O)N[C@@H](CC(C)C)C(=O)N[C@@H](CO)C(=O)N[C@@H](CO)C(=O)N[C@H](C(=O)N[C@@H](CCC(=O)O)C(=O)N[C@H](C(=O)NCC(=O)N[C@@H](CO)C(=O)N[C@@H](CC(N)=O)C(=O)N[C@H](C(=O)N1C[C@H](O)C[C@H]1C(N)=O)[C@@H](C)O)C(C)C)[C@@H](C)O)N(C)C(=O)[C@H](C)NC(=O)CN(C)C(=O)[C@H](Cc1ccccc1)NC(=O)[C@H](CO)NC(=O)[C@H](CO)NC(=O)[C@H](CCCNC(=N)N)NC(=O)[C@H](CCC(N)=O)NC(=O)[C@H](CC(C)C)NC(=O)[C@H](Cc1ccccc1)NC(=O)[C@H](CCCC(=O)O)NC(=O)[C@H](C)NC(=O)[C@H](CC(C)C)NC(=O)[C@H](CCCNC(=N)N)NC(=O)[C@H](CCC(=O)O)NC(=O)[C@@H](NC(=O)[C@H](C)NC(=O)[C@@H]1CCCCNC(=O)C[C@H](NC(=O)[C@H](CCCNC(=N)N)NC(=O)CC[C@H](NC(=O)CCCCCCCCCCCCCCCCCCC(=O)O)C(=O)O)C(=O)N2CCC[C@H]2C(=O)N[C@@H]([C@@H](C)O)C(=O)N[C@@H](C)C(=O)N[C@@H]([C@@H](C)O)C(=O)N1)[C@@H](C)O
Regarding B7, the hCT-R EC50 [nM] (cAMP formation, 1321N1 cells expressing hCT-R) in assay [1] amounted to 1.07 nM. Besides, in assay [2], the hAMYR3 EC50 [nM] (cAMP formation, 1321N1 cells expressing hAMYR3) is 0.312 nM.
